The values below come from patent publication US20230002496A1 (STAIDSON BEIJING BIOPHARMACEUTICALS, published 2023).

This test concerns the target T1, human GM-CSFRα, full length on cells (human, UniProt P15509 23-400).
T1 sequence: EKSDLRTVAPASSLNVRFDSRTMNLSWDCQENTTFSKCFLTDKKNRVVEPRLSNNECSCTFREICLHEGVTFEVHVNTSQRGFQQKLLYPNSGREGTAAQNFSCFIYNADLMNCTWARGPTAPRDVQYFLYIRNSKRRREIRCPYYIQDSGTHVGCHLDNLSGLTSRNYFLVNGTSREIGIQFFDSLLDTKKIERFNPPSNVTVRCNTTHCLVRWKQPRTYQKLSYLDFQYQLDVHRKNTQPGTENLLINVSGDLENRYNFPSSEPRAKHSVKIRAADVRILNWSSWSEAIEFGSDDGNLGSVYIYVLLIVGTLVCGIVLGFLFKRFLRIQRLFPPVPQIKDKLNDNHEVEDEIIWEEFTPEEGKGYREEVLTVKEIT
In words: cell-based or functional assay.

Changes are numbered by the printed parent chain.

B1: E35-scFv LD92A (scFv, V domains shown)
VH: QMQLVQSGAEVKKPGASVKVSCKVSGYTLTELSIHWVRQAPGKGLEWMGGFDPEDGETIYAQKFQGRVTMTGDTSTDTAYLELSSLRSEDTALYYCATGRYTSLATTYGFDYWGQGTLVTVSS
VL: EIVMTQSPATLSLSPGERATLSCRASQSVSSYLAWYQQKPGQAPRLLIYGASSRATGIPDRFSGSGSGTDFTLTISRLEPEDFAVYYCQQYANWPYTFGQGTKLEIK
For the molecule B1, the “IC50, TF-1 cell proliferation” value turned out to be 0.282 µg/mL.

B2: E35-scFv HE31G (scFv, V domains shown)
VH: B1 VH with E31G
VL: B1 VL with A92D
Take B2: the “IC50, TF-1 cell proliferation” value was 0.116 µg/mL.

B3: E35-scFv LN93S (scFv, V domains shown)
VH: B1 VH
VL: B1 VL with A92D, N93S
As for B3, the “IC50, TF-1 cell proliferation” value came to 0.3 µg/mL.

B4: E35-scFv LD92V (scFv, V domains shown)
VH: B1 VH
VL: B1 VL with A92V
As for B4, the “IC50, TF-1 cell proliferation” value amounted to 0.387 µg/mL.

B5: E35-scFv HE31V (scFv, V domains shown)
VH: B1 VH with E31V
VL: B1 VL with A92D
For the molecule B5, the “IC50, TF-1 cell proliferation” value is 0.22 µg/mL.

B6: E35-scFv HE31F (scFv, V domains shown)
VH: B1 VH with E31F
VL: B1 VL with A92D
Consider B6, for which the “IC50, TF-1 cell proliferation” value came to 0.18 µg/mL.

B7: E35-scFv HE31P (scFv, V domains shown)
VH: B1 VH with E31P
VL: B1 VL with A92D
For the molecule B7, the “IC50, TF-1 cell proliferation” value worked out at 0.17 µg/mL.

B8: E35-scFv LN93G (scFv, V domains shown)
VH: B1 VH
VL: B1 VL with A92D, N93G
Regarding B8, the “IC50, TF-1 cell proliferation” value turned out to be 0.205 µg/mL.

B9: E35-scFv LD92R (scFv, V domains shown)
VH: B1 VH
VL: B1 VL with A92R
As for B9, the “IC50, TF-1 cell proliferation” value came to 0.495 µg/mL.

B10: E35-scFv LN93R (scFv, V domains shown)
VH: B1 VH
VL: B1 VL with A92D, N93R
For B10, the “IC50, TF-1 cell proliferation” value came to 0.6 µg/mL.

B11: E35-scFv LD92Q (scFv, V domains shown)
VH: B1 VH
VL: B1 VL with A92Q
Consider B11, for which the “IC50, TF-1 cell proliferation” value was 0.328 µg/mL.

B12: E35-scFv LN93T (scFv, V domains shown)
VH: B1 VH
VL: B1 VL with A92D, N93T
As to B12, the “IC50, TF-1 cell proliferation” value is 0.14 µg/mL.

B13: E35-scFv LD92S (scFv, V domains shown)
VH: B1 VH
VL: B1 VL with A92S
With B13, the “IC50, TF-1 cell proliferation” value is 0.598 µg/mL.

B14: E35-scFv LN93E (scFv, V domains shown)
VH: B1 VH
VL: B1 VL with A92D, N93E
Turning to B14, the “IC50, TF-1 cell proliferation” value turned out to be 0.081 µg/mL.

B15: E35-scFv HE31S (scFv, V domains shown)
VH: B1 VH with E31S
VL: B1 VL with A92D
In the case of B15, the “IC50, TF-1 cell proliferation” value amounted to 0.14 µg/mL.

B16: E35-scFv LD92G (scFv, V domains shown)
VH: B1 VH
VL: B1 VL with A92G
For B16, the “IC50, TF-1 cell proliferation” value came to 0.522 µg/mL.

B17: E35-scFv LN93P (scFv, V domains shown)
VH: B1 VH
VL: B1 VL with A92D, N93P
In the case of B17, the “IC50, TF-1 cell proliferation” value turned out to be 0.66 µg/mL.

B18: E35-scFv HE31W (scFv, V domains shown)
VH: B1 VH with E31W
VL: B1 VL with A92D
For the molecule B18, the “IC50, TF-1 cell proliferation” value amounted to 0.26 µg/mL.

B19: E35-scFv LN93A (scFv, V domains shown)
VH: B1 VH
VL: B1 VL with A92D, N93A
With B19, the “IC50, TF-1 cell proliferation” value is 0.21 µg/mL.

B20: E35-scFv LD92H (scFv, V domains shown)
VH: B1 VH
VL: B1 VL with A92H
Turning to B20, the “IC50, TF-1 cell proliferation” value is 0.53 µg/mL.

B21: E35-scFv HE31M (scFv, V domains shown)
VH: B1 VH with E31M
VL: B1 VL with A92D
On to B21, for which the “IC50, TF-1 cell proliferation” value came to 0.13 µg/mL.

B22: E35-scFv LD92K (scFv, V domains shown)
VH: B1 VH
VL: B1 VL with A92K
Turning to B22, the “IC50, TF-1 cell proliferation” value was determined as 0.64 µg/mL.

B23: E35-scFv LN93F (scFv, V domains shown)
VH: B1 VH
VL: B1 VL with A92D, N93F
Consider B23, for which the “IC50, TF-1 cell proliferation” value is 0.3 µg/mL.

B24: E35-scFv LD92I (scFv, V domains shown)
VH: B1 VH
VL: B1 VL with A92I
Take B24: the “IC50, TF-1 cell proliferation” value was 0.597 µg/mL.

B25: E35-scFv LD92P (scFv, V domains shown)
VH: B1 VH
VL: B1 VL with A92P
Regarding B25, the “IC50, TF-1 cell proliferation” value came to 0.881 µg/mL.

B26: E35-scFv LD92T (scFv, V domains shown)
VH: B1 VH
VL: B1 VL with A92T
On to B26, for which the “IC50, TF-1 cell proliferation” value amounted to 0.494 µg/mL.

B27: E35-scFv LN93D (scFv, V domains shown)
VH: B1 VH
VL: B1 VL with A92D, N93D
For B27, the “IC50, TF-1 cell proliferation” value stood at 0.045 µg/mL.

B28: E35-scFv HE31N (scFv, V domains shown)
VH: B1 VH with E31N
VL: B1 VL with A92D
As for B28, the “IC50, TF-1 cell proliferation” value was found to be 0.11 µg/mL.

B29: E35-scFv HE31Y (scFv, V domains shown)
VH: B1 VH with E31Y
VL: B1 VL with A92D
For the molecule B29, the “IC50, TF-1 cell proliferation” value stood at 0.2 µg/mL.

B30: E35-scFv LN93I (scFv, V domains shown)
VH: B1 VH
VL: B1 VL with A92D, N93I
Consider B30, for which the “IC50, TF-1 cell proliferation” value was found to be 0.33 µg/mL.

B31: E35-scFv HE31K (scFv, V domains shown)
VH: B1 VH with E31K
VL: B1 VL with A92D
With B31, the “IC50, TF-1 cell proliferation” value is 0.23 µg/mL.

B32: E35-scFv LN93L (scFv, V domains shown)
VH: B1 VH
VL: B1 VL with A92D, N93L
As for B32, the “IC50, TF-1 cell proliferation” value stood at 0.33 µg/mL.

B33: E35-scFv LD92W (scFv, V domains shown)
VH: B1 VH
VL: B1 VL with A92W
With B33, the “IC50, TF-1 cell proliferation” value was 0.342 µg/mL.

B34: E35-scFv LN93H (scFv, V domains shown)
VH: B1 VH
VL: B1 VL with A92D, N93H
Take B34: the “IC50, TF-1 cell proliferation” value amounted to 0.45 µg/mL.

B35: E35-scFv LD92L (scFv, V domains shown)
VH: B1 VH
VL: B1 VL with A92L
In the case of B35, the “IC50, TF-1 cell proliferation” value was 0.42 µg/mL.

B36: E35-scFv LN93M (scFv, V domains shown)
VH: B1 VH
VL: B1 VL with A92D, N93M
On to B36, for which the “IC50, TF-1 cell proliferation” value turned out to be 0.27 µg/mL.

B37: E35-scFv LD92M (scFv, V domains shown)
VH: B1 VH
VL: B1 VL with A92M
Regarding B37, the “IC50, TF-1 cell proliferation” value was found to be 0.507 µg/mL.

B38: E35-scFv LN93K (scFv, V domains shown)
VH: B1 VH
VL: B1 VL with A92D, N93K
B38: the “IC50, TF-1 cell proliferation” value worked out at 0.78 µg/mL.

B39: E35-scFv HE31A (scFv, V domains shown)
VH: B1 VH with E31A
VL: B1 VL with A92D
As to B39, the “IC50, TF-1 cell proliferation” value is 0.21 µg/mL.

B40: E35-scFv LN93Y (scFv, V domains shown)
VH: B1 VH
VL: B1 VL with A92D, N93Y
For the molecule B40, the “IC50, TF-1 cell proliferation” value amounted to 0.156 µg/mL.

B41: E35-scFv HE31D (scFv, V domains shown)
VH: B1 VH with E31D
VL: B1 VL with A92D
With B41, the “IC50, TF-1 cell proliferation” value was determined as 0.13 µg/mL.
